Assay results taken from patent publication US6465430.
One block for each binder: values may come before it. Bridges are numbered along the chain shown (N, C = ends). Where no end group is shown, it is not given here.

Target: soluble TPO-R (thrombopoietin receptor), immobilized (UniProt P40238 26-491)
Assay: competition ELISA vs MBP-TPO156 (+: IC50 <=200 µM)

Chain of soluble TPO-R (thrombopoietin receptor), immobilized (P40238 26-491): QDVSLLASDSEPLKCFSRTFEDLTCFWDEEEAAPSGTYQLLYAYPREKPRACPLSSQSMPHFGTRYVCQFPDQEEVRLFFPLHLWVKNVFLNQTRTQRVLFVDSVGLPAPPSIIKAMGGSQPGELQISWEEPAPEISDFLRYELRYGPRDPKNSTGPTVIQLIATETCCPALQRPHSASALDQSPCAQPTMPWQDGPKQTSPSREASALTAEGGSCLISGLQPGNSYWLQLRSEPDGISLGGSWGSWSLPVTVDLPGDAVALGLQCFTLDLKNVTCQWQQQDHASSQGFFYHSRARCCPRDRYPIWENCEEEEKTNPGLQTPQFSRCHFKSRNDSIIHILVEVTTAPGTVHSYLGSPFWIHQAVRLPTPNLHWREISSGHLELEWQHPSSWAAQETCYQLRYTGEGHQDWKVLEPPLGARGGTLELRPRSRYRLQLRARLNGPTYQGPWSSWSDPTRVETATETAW

IC50: 0.5 to 200 µM
B1: cyclized SEQ ID NO:12 compound, I - A (peptide)
peptide: CADGPTLREWASFC-NH2
modifications: disulfide 1-14 (inferred)

IC50: 0.5 to 200 µM
B2: cyclized SEQ ID NO:12 compound, ADG - deletion (peptide)
peptide: CPTLREWISFC-NH2
modifications: disulfide 1-11 (inferred)
